In patent US20230242658A1 (published 2023):
Each block holds one binder with its values, some of them ahead of it.

What was measured:
[1] = target: T1, human 4-1BB on CHO-K1 cells (human, UniProt Q07011 24-255); assay: FACS blocking of 4-1BBL; FIG. 14B
[2] = target: T1, human 4-1BB on CHO-K1 cells; assay: FACS
Target sequence in this assay (Q07011 24-255): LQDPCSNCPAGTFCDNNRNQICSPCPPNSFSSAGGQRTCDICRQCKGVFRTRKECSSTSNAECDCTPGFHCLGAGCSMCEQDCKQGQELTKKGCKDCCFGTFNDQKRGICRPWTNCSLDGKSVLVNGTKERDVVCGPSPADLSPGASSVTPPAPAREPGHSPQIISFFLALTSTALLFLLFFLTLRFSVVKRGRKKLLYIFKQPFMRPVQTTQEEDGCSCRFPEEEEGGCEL

[3] = target: T1, human 4-1BB on CHO-K1 cells; assay: FACS blocking of 4-1BBL; FIG. 14D
[4] = target: T1, human 4-1BB on CHO-K1 cells; assay: FACS; FIG. 11B
[5] = target: T1, human 4-1BB on CHO-K1 cells; assay: FACS; FIG. 11C
[6] = target: T1, human 4-1BB on CHO-K1 cells; assay: FACS; FIG. 11E
[7] = target: T1, human 4-1BB on CHO-K1 cells; assay: FACS; FIG. 11M
Target sequence in this assay (Q07011 24-255): as above

[8] = target: T1, human 4-1BB on CHO-K1 cells; assay: FACS; FIG. 11D
[9] = target: T1, human 4-1BB on CHO-K1 cells; assay: FACS; FIG. 11G
[10] = target: T1, human 4-1BB on CHO-K1 cells; assay: FACS; FIG. 11L
Target sequence in this assay (Q07011 24-255): as above

[11] = target: T1, human 4-1BB on CHO-K1 cells; assay: FACS; FIG. 11F
[12] = target: T1, human 4-1BB on CHO-K1 cells; assay: FACS blocking of 4-1BBL; FIG. 14C
[13] = target: T1, human 4-1BB on CHO-K1 cells; assay: FACS; FIG. 11K
Target sequence in this assay (Q07011 24-255): as above

[14] = target: T1, human 4-1BB on CHO-K1 cells; assay: FACS blocking of 4-1BBL; FIG. 14A
[15] = target: T2, human PD-L1 on CHO-K1 cells (human, UniProt Q9NZQ7 19-290); assay: FACS; MDA-MB-231 cells; FIG. 24C
[16] = target: T2, human PD-L1 on CHO-K1 cells; assay: FACS; MDA-MB-231 cells; FIG. 24D
[17] = target: T2, human PD-L1 on CHO-K1 cells; assay: FACS; MDA-MB-231 cells; FIG. 24E
[18] = target: T3, cynomolgus monkey 4-1BB on CHO-K1 cells (cynomolgus monkey); assay: FACS; FIG. 12B
T3 chain: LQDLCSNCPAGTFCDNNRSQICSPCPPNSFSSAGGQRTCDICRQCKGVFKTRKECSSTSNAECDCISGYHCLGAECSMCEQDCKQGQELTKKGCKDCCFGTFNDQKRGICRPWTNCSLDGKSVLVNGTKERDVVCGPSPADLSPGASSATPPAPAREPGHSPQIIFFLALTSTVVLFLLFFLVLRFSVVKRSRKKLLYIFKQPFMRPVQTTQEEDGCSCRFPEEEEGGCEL

[19] = target: T3, cynomolgus monkey 4-1BB on CHO-K1 cells; assay: FACS; FIG. 12H
[20] = target: T3, cynomolgus monkey 4-1BB on CHO-K1 cells; assay: FACS; FIG. 21B
[21] = target: T3, cynomolgus monkey 4-1BB on CHO-K1 cells; assay: FACS; FIG. 12L
[22] = target: T3, cynomolgus monkey 4-1BB on CHO-K1 cells; assay: FACS
[23] = target: T3, cynomolgus monkey 4-1BB on CHO-K1 cells; assay: FACS; FIG. 12A
[24] = target: T3, cynomolgus monkey 4-1BB on CHO-K1 cells; assay: FACS; FIG. 12D
[25] = target: T3, cynomolgus monkey 4-1BB on CHO-K1 cells; assay: FACS; FIG. 21A
[26] = target: T3, cynomolgus monkey 4-1BB on CHO-K1 cells; assay: FACS; FIG. 12I
[27] = target: T3, cynomolgus monkey 4-1BB on CHO-K1 cells; assay: FACS; FIG. 12J
[28] = target: T3, cynomolgus monkey 4-1BB on CHO-K1 cells; assay: FACS; FIG. 12E
[29] = target: T3, cynomolgus monkey 4-1BB on CHO-K1 cells; assay: FACS; FIG. 12F
[30] = target: T3, cynomolgus monkey 4-1BB on CHO-K1 cells; assay: FACS; FIG. 12K
[31] = target: T3, cynomolgus monkey 4-1BB on CHO-K1 cells; assay: FACS; FIG. 12C
[32] = target: T3, cynomolgus monkey 4-1BB on CHO-K1 cells; assay: FACS

T2 sequence (Q9NZQ7 19-290): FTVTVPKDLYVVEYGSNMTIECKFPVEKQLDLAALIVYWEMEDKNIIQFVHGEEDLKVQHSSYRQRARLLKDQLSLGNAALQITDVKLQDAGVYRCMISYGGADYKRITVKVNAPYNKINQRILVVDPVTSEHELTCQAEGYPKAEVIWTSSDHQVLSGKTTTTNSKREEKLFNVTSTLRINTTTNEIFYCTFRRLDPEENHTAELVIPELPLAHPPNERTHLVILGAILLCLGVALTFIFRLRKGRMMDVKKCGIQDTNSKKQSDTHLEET

IC50 [1]: 1500 pM
EC50 [2]: 222 pM
IC50 [3]: 2370 pM
EC50 [4]: 222 pM
EC50 [5]: 222 pM
EC50 [6]: 222 pM
EC50 [7]: 550 pM
EC50 [8]: 222 pM
EC50 [9]: 222 pM
EC50 [10]: 565 pM
EC50 [11]: 222 pM
IC50 [12]: 2410 pM
EC50 [13]: 583 pM
IC50 [14]: ~2530 pM
B1: Urelumab (antibody, V domains shown)
VH: QVQLQQWGAGLLKPSETLSLTCAVYGGSFSGYYWSWIRQSPEKGLEWIGEINHGGYVTYNPSLESRVTISVDTSKNQFSLKLSSVTAADTAVYYCARDYGPGNYDWYFDLWGRGTLVTVSS
VL: EIVLTQSPATLSLSPGERATLSCRASQSVSSYLAWYQQKPGQAPRLLIYDASNRATGIPARFSGSGSGTDFTLTISSLEPEDFAVYYCQQRSNWPPALTFGGGTKVEIKR

EC50 [15]: 110 pM
EC50 [16]: 233 pM
EC50 [17]: 233 pM
B2: PR000265 (antibody, V domains shown)
VH: EVQLVESGGGLVQPGGSLRLSCAASGFTFSSYWMSWVRQAPGKGLEWVANIKQEGSEKYYVDSVKGRFTISRDNAKNSLYLQMNSLRAEDTAVYYCARDRAVAGAFDIWGQGTMVTVSS
VL: DIQMTQSPSTLSASVGDRVTVTCRASQSIYIWLAWYQQKPGKAPNLLIYKASSLETGVPSRFSGSGSGTEFTLTISSLQPDDFATYYCQQYYGSSRTFGQGTKVEIKR

EC50 [18]: 3460 pM
EC50 [19]: 393 pM
EC50 [20]: 984 pM
EC50 [21]: 425 pM
EC50 [22]: 347 pM
EC50 [23]: 3460 pM
EC50 [24]: 3460 pM
EC50 [25]: 1340 pM
EC50 [26]: 378 pM
EC50 [27]: 435 pM
EC50 [28]: 3460 pM
EC50 [29]: 3460 pM
EC50 [30]: 503 pM
EC50 [31]: 3460 pM
EC50 [32]: 337 pM
B3: Utomilumab (antibody, V domains shown)
VH: EVQLVQSGAEVKKPGESLRISCKGSGYSFSTYWISWVRQMPGKGLEWMGKIYPGDSYTNYSPSFQGQVTISADKSISTAYLQWSSLKASDTAMYYCARGYGIFDYWGQGTLVTVSS
VL: SYELTQPPSVSVSPGQTASITCSGDNIGDQYAHWYQQKPGQSPVLVIYQDKNRPSGIPERFSGSNSGNTATLTISGTQAMDEADYYCATYTGFGSLAVFGGGTKLTVLG
